Test results taken from US20240115729A1, “COMPOSITIONS AND METHODS FOR TARGETED ANTIFIBROTIC THERAPY IN CHRONIC PANCREATITIS” (University of Virginia Patent Foundation, priority 2021, published 2024).

Assays:
Assay in all cases: IF colocalization (JACoP) of VT680 phage with marker, CP mouse pancreas sections
[1] = biological target: carboxypeptidase A1 (CPA1) (mouse) (UniProt Q7TPZ8)
[2] = biological target: F4/80 (mouse) (UniProt Q61549)
[3] = biological target: cytokeratin 7 (CK-7) (mouse) (UniProt Q9DCV7)
Chain of UniProt Q9DCV7 (Q9DCV7 2-457): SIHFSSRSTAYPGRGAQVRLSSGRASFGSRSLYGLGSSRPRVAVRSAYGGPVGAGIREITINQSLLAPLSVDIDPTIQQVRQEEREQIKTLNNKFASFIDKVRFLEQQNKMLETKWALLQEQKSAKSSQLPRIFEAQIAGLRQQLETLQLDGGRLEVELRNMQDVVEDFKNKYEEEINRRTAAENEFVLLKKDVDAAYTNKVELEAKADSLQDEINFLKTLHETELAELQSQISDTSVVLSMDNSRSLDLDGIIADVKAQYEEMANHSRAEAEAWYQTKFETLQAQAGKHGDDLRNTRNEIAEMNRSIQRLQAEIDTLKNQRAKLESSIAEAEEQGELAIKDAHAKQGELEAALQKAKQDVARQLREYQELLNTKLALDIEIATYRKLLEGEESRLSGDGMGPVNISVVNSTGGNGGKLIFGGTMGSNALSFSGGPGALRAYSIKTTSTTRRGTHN

[4] = biological target: CD31 (mouse) (UniProt Q08481)
Chain of UniProt Q08481 (Q08481 18-727): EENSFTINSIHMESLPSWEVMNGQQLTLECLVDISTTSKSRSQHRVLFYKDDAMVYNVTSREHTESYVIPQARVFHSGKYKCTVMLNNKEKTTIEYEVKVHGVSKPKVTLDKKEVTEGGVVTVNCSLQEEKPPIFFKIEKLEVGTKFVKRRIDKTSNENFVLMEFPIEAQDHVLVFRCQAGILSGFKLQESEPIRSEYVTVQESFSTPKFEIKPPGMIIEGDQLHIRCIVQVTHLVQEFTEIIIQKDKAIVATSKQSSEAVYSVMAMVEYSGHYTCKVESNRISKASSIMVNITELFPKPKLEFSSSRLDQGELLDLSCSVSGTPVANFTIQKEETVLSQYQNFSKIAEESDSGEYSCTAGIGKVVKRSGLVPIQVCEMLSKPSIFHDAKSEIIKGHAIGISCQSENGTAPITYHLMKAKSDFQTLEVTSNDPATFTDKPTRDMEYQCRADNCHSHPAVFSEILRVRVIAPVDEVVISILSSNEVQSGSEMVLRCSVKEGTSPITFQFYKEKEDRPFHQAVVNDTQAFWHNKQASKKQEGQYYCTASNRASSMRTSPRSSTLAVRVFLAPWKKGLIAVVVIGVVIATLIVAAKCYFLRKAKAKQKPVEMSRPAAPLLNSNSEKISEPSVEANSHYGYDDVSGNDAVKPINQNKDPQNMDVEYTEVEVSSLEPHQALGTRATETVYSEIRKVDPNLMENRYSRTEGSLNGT

[5] = biological target: collagen IIIa (mouse) (UniProt P08121)
Chain of UniProt P08121 (P08121 155-1219): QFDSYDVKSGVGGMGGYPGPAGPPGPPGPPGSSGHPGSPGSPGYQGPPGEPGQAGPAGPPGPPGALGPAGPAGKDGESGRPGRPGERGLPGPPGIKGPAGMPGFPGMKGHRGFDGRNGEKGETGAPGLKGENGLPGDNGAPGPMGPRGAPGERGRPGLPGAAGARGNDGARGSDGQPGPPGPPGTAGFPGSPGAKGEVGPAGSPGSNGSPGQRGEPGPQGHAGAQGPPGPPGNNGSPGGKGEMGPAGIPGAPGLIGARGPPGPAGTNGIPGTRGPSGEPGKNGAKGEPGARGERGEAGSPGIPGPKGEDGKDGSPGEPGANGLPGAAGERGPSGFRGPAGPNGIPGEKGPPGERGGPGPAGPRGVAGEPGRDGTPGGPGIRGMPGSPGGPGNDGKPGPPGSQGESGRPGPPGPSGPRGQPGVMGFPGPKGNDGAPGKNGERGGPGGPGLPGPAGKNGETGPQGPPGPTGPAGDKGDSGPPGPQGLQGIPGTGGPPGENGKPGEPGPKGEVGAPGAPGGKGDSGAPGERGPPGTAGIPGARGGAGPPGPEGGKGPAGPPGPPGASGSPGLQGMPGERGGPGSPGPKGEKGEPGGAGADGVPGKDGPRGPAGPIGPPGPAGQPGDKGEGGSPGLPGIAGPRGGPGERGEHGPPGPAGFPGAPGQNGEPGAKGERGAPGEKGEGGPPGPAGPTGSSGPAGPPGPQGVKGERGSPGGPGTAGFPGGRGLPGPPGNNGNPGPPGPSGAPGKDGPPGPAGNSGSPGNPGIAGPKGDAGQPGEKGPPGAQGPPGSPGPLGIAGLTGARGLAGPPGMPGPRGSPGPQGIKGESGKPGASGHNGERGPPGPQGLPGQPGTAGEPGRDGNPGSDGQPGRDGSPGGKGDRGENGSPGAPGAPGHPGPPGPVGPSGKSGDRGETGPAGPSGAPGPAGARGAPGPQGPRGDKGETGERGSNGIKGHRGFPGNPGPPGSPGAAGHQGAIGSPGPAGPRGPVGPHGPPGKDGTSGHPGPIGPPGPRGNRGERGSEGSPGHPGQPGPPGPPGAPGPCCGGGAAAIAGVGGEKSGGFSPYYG

Chain of UniProt Q7TPZ8 (Q7TPZ8 111-419): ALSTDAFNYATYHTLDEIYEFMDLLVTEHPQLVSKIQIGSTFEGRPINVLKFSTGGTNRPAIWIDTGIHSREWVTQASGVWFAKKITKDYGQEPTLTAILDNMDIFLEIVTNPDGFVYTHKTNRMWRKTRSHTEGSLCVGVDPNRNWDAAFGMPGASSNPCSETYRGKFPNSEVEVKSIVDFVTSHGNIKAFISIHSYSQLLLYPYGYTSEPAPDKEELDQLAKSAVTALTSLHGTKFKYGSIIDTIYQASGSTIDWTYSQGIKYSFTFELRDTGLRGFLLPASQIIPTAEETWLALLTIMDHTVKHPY
Chain of UniProt Q61549 (Q61549 28-931): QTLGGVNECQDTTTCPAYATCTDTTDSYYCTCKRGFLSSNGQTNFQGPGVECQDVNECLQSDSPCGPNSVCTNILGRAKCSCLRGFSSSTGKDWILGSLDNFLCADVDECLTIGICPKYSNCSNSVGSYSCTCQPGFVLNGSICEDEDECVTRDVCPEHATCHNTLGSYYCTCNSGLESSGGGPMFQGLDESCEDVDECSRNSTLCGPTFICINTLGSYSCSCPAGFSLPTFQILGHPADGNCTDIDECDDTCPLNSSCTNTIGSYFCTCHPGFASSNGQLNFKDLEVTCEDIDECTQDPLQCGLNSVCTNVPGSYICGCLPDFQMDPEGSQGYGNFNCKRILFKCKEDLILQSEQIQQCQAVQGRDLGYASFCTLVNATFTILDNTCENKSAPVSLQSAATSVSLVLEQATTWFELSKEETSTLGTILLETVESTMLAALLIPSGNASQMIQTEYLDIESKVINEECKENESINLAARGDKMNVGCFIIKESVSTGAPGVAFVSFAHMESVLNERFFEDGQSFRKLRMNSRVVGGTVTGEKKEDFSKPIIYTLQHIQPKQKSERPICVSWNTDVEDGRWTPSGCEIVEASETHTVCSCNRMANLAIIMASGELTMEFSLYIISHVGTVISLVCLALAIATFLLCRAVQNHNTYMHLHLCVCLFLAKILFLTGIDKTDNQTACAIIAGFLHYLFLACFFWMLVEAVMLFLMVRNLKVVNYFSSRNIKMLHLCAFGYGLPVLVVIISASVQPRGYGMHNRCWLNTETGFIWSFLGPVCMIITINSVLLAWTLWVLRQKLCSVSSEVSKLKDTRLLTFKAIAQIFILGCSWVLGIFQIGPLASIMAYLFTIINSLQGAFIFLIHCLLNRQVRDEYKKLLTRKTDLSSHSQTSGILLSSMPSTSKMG

“SLTNSSF (SEQ ID NO: 27) phage clone (peptide)” gave a mean Manders' correlation coefficient (MCC), fraction of phage overlapping cell marker [1] of 0.22, a mean Manders' correlation coefficient (MCC), fraction of phage overlapping cell marker [2] of 0.8 and a mean Manders' correlation coefficient (MCC), fraction of phage overlapping cell marker [3] of 0.11. It also gave a mean Manders' correlation coefficient (MCC), fraction of phage overlapping cell marker [4] of 0.13 and a mean Manders' correlation coefficient (MCC), fraction of phage overlapping cell marker [5] of 0.33.
